Measured values published in patent US12116428B2, “Lipid analogs and liposomes comprising same” (Yeda Research and Development Co. Ltd., priority 2015, dated 2024).

Legend:
[1] = Zeta potential measurement; format: physicochemical; conditions: FIG. 11: SUVs of HSPC and DSG-PMPC
[2] = Micelle formation in water by dynamic light scattering; format: physicochemical; conditions: 20 mg/ml in pure water (pH 5), one day

Which “net charge (zeta potential)” value [1] does the source give for “1,2-distearoyl-sn-glycerol-poly((O-(2-methacryloyloxyethyl) phosphorylcholine) [DSG-PMPC]” here?
The value was “zero”.

For “distearoylphosphatidylethanolamine-substituted poly(O-(2-methacryloyloxyethyl)phosphorylcholine) [DSPE-PMPC]”, which micelle formation [2] is on record?
The micelle formation was “formed micelles”.
